B1: FIXa-K247N/N249S/R318Y/R338E/T343R/E410N (protein)
chain 1: not shown
chain 2: not shown
B2: FIXa-R318Y/R338E/N346Y/R403E/E410N (protein)
chain 1: not shown
chain 2: not shown
B3: FIXa-D104N/K106S/R318Y/R338E/T343R/R403E/E410N (protein)
chain 1: not shown
chain 2: not shown
B4: FIXa-R318Y/R338E/R403E/E410N/T412V (protein)
chain 1: not shown
chain 2: not shown
B5: FIXa-R318Y/R338E/T343R/N346Y/R403E/E410N (protein)
chain 1: not shown
chain 2: not shown
B6: FIXa-R318Y/R338E/T343R/N346D/R403E/E410N (protein)
chain 1: not shown
chain 2: not shown
B7: FIXa-R318Y/R338E/T343R/R403E/E410N (protein)
chain 1: not shown
chain 2: not shown
B8: FIXa-R318Y/R338E/E410N/T412V (protein)
chain 1: not shown
chain 2: not shown
B9: FIXa-R318Y/R338E/Y345A/R403E/E410N (protein)
chain 1: not shown
chain 2: not shown
B10: FIXa-D104N/K106S/K228N/K247N/N249S/R318Y/R338E/R403E/E410N (protein)
chain 1: not shown
chain 2: not shown
B11: FIXa-R318Y/R338E/R403E/E410N/T412A (protein)
chain 1: not shown
chain 2: not shown
B12: FIXa-K247N/N249S/N260S/R318Y/R338E/R403E/E410N (protein)
chain 1: not shown
chain 2: not shown
B13: FIXa-Y155F/R318Y/R338E/T343R/R403E/E410N (protein)
chain 1: not shown
chain 2: not shown

Each protein was assayed against Factor X (FX), P00742.
Chain of Factor X (FX), P00742 (P00742 whole entry, looked up): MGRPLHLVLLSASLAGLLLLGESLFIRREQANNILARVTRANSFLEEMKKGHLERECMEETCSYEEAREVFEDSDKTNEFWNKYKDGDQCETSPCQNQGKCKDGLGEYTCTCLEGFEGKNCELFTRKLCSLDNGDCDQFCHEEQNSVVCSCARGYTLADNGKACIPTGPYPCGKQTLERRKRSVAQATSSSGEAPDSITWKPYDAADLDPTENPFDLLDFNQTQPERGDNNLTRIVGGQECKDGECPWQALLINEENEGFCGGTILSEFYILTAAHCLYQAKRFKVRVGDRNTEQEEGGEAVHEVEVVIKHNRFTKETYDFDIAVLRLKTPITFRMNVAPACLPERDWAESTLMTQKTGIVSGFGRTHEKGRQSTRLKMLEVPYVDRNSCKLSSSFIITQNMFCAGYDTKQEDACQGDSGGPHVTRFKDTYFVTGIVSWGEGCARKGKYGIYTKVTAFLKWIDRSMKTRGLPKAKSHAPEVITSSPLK
In the case of B1, the kcat is reported as 8.8 s⁻¹.
B2 was tested, and the KM was 0.0281 µM and the kcat was 3.4 s⁻¹.
B3 showed a KM of 0.0266 µM and a kcat of 5.7 s⁻¹.
In the case of B4, the KM is reported as 0.0483 µM and the kcat is reported as 7 s⁻¹.
Work on B5 yielded a KM of 0.0158 µM and a kcat of 4.6 s⁻¹.
B6 was tested, and the KM was 0.067 µM and the kcat was 5.4 s⁻¹.
With B7 the “% of WT kcat/KM (against Catalyst Biosciences WT FIXa), FX activation in the Xase complex” value (from here on “% of WT kcat/KM”) was 1217%, the KM was 0.0247 µM and the KM (nM) for activation of FX by FIXa in the Xase complex (FVIIIa, PC/PS vesicles, Ca2+), fluorogenic Spectrafluor FXa assay was 22.3 nM. For the same protein, the kcat was 9.7 s⁻¹ and the kcat/KM for FX activation by FIXa in the Xase complex (FVIIIa, PC/PS vesicles, Ca2+), indirect fluorogenic Spectrafluor FXa assay was 5.4e+08 M⁻¹ s⁻¹.
B8 was tested, and the “% of WT kcat/KM” value was 536%, the KM was 0.0236 µM and the kcat was 5.2 s⁻¹. For the same protein, the kcat/KM for FX activation by FIXa in the Xase complex (FVIIIa, PC/PS vesicles, Ca2+), indirect fluorogenic Spectrafluor FXa assay was 2.4e+08 M⁻¹ s⁻¹.
Protein B9 has a KM of 0.0188 µM and a kcat of 1.4 s⁻¹.
B10 showed a KM of 0.0533 µM.
B11 gave a KM of 0.0344 µM and a kcat of 7.8 s⁻¹.
B12 was tested, and the “% of WT kcat/KM” value was 217%, the KM was 0.0474 µM and the KM (nM) for activation of FX by FIXa in the Xase complex (FVIIIa, PC/PS vesicles, Ca2+), fluorogenic Spectrafluor FXa assay was 62.2 nM. For the same protein, the kcat was 3.4 s⁻¹ and the kcat/KM for FX activation by FIXa in the Xase complex (FVIIIa, PC/PS vesicles, Ca2+), indirect fluorogenic Spectrafluor FXa assay was 9.7e+07 M⁻¹ s⁻¹.
B13 showed a KM of 0.0272 µM and a kcat of 7.8 s⁻¹.

Each protein was assayed against Factor X, P00742.
Chain of Factor X, P00742 (P00742 whole entry, looked up): as above
In the case of B1, the KM is reported as 0.0328 µM.
Protein B2 has a kcat/KM of 1.2e+08 M⁻¹ s⁻¹.
B3 was tested, and the kcat/KM was 2.2e+08 M⁻¹ s⁻¹.
B4 was tested, and the kcat/KM was 1.6e+08 M⁻¹ s⁻¹.
For B5, the kcat/KM was 3.1e+08 M⁻¹ s⁻¹.
B6 was tested, and the kcat/KM was 8.2e+07 M⁻¹ s⁻¹.
B7 was tested, and the kcat/KM was 4.2e+08 M⁻¹ s⁻¹.
B8 was tested, and the kcat/KM was 2.6e+08 M⁻¹ s⁻¹.
For B9, the kcat/KM was 8.3e+07 M⁻¹ s⁻¹.
Protein B10 has a kcat of 6.1 s⁻¹ and a kcat/KM of 1.1e+08 M⁻¹ s⁻¹.
B11 gave a kcat/KM of 2.5e+08 M⁻¹ s⁻¹.
B12 showed a kcat/KM of 6.7e+07 M⁻¹ s⁻¹.
With B13 the kcat/KM was 3e+08 M⁻¹ s⁻¹.

— US11491212
